From patent US20240400657A1 (MorphoSys, published 2024)

T1: engineered version of human C5aR expressed on CHO cells of the PathHunter β-arrestin assay (DiscoveRx) (human, UniProt P21730 1-350)
T1 sequence (looked up): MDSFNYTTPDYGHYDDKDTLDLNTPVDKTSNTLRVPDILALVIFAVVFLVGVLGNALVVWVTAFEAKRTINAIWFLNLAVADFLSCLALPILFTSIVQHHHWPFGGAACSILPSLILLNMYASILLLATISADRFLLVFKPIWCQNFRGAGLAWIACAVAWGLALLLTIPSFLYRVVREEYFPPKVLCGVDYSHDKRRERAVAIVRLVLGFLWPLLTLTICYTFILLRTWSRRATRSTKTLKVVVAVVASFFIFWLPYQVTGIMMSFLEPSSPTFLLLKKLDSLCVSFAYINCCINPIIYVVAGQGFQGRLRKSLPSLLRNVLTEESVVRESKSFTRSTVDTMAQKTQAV

T2: full length human C5aR stably expressed on CHO Flp-In cells (human, UniProt P21730 1-350)
T2 construct: also called human C5aR expressed on CHO cells
T2 sequence: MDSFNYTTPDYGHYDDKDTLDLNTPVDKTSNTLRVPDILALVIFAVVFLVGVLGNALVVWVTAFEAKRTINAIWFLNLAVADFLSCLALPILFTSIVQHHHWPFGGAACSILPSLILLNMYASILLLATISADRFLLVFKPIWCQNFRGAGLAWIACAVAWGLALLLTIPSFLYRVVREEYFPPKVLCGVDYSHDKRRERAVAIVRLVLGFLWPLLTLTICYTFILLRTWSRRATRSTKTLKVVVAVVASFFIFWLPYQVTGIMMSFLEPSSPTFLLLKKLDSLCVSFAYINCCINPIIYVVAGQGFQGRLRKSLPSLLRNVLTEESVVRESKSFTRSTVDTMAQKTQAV

T3: C5aR expressed on purified human neutrophils (human, UniProt P21730 1-350)
T3 construct: whole, on cells; Used here for all assays on primary human cells (purified neutrophils, granulocytes and monocytes in whole blood, monocyte-derived macrophages); also called human C5aR expressed endogenously; C5aR on human granulocytes, monocytes and macrophages
T3 sequence (looked up): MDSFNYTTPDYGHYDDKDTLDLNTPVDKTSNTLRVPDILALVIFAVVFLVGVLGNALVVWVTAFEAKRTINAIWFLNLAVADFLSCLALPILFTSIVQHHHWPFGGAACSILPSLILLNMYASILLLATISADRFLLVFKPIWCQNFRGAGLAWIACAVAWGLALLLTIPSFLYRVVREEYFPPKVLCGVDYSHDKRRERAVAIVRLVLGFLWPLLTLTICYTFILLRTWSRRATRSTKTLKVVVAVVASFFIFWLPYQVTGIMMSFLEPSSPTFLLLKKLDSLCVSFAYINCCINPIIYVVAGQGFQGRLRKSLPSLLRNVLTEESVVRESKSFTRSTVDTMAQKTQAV

T4: C5aR expressed on purified cynomolgus neutrophils (cynomolgus monkey (Macaca fascicularis))
T4 construct: Endogenous receptor on neutrophils from whole blood of three animals; also called cynomolgus C5aR expressed endogenously
T4 chain: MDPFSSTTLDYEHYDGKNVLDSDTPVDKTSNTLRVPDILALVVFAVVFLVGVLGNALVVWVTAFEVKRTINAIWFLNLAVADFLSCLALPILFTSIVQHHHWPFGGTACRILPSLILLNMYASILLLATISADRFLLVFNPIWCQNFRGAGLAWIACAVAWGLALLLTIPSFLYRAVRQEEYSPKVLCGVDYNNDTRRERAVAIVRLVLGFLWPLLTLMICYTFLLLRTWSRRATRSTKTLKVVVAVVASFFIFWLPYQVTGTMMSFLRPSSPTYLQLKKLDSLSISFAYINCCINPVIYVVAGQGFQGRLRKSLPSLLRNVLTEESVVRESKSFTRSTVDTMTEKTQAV

T5: full length cynomolgus C5aR stably expressed on CHO Flp-In cells (cynomolgus monkey (Macaca fascicularis))
T5 chain: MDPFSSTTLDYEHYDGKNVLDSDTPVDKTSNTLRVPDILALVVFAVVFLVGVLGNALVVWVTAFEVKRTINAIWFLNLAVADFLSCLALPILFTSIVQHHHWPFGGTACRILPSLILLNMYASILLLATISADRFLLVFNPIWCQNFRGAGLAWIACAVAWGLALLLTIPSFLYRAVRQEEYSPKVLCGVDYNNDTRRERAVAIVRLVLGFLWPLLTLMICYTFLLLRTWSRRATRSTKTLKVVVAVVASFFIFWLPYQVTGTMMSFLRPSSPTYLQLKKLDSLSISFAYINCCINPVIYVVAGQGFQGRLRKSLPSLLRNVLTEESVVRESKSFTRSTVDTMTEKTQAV

B1: Human C5a (ligand)
chain: TLQKKIEEIAAKYKHSVVKKCCYDGACVNNDETCEQRAARISLGPRCIKAFTECCVVASQLRANISHKDMQLGR
B2: RefMAB #1 (antibody, human IgG1, kappa, V domains shown)
VH: EVQLVESGGGLVQPGGSLRLSCAASGFTFSSYVMHWVRQATGKGLEWVSAIDTGGGTYYADSVKGRFTISRENAKNSLYLQMNSLRAGDTAVYYCARDYYYYASGSYYKAFDIWGQGTMVTVSS
VL: EIVLTQSPGTLSLSPGERATLSCRASQSVSSRYLAWYQQKPGQAPRLLIYGASSRATGIPDRFSGSGSGTDFTLTISRLEPEDFAVYYCQQYGSPLTFGQGTKLEIKR
notes: also called IPH5401; NNC0215-0384

Columns and labels:
[1] = biological target: T1, engineered version of human C5aR …; assay: cell-based or functional assay
[2] = biological target: T2, full length human C5aR stably expressed …; assay: FACS on Flp-In CHO cells, IgG titration
Experimental: (§1) The C5aR-CHO Flp-In™ cell lines were blocked and IgGs were added either in serial dilutions or at a single (high) concentration of 300 nM. For detection of IgG binding, an R-phycoerythrin (R-PE) conjugated anti-human IgG (Fc-gamma fragment specific)2 antibody was added and fluorescence was measured using the FACS Array or Novocyte device.

[3] = biological target: T3, C5aR expressed on purified human …; assay: FACS on purified human neutrophils, IgG titration
Experimental: (§2) Neutrophils were purified from EDTA-whole blood samples using a MACSexpress® Neutrophil Isolation Cocktail from Miltenyi Biotec. Briefly, using this kit, cells are isolated using magnetic labeling and negative magnetic separation. […] Measurements were done at the FACS Array device. FACS data were evaluated using FlowJo™, entered into GraphPad® Prism (v4.0) and fitted to the sigmoidal dose-response curve using non-linear regression to calculate the EC50.

[4] = biological target: T3, C5aR expressed on purified human …; assay: cell-based or functional assay
[5] = biological target: T1, engineered version of human C5aR …; assay: cell-based or functional assay; remark: listed apart in the source
[6] = biological target: T3, C5aR expressed on purified human …; assay: cell-based or functional assay; remark: listed apart in the source
[7] = biological target: T4, C5aR expressed on purified cynomolgus …; assay: FACS, purified cynomolgus neutrophils, IgG titration
Experimental: as §2

[8] = biological target: T5, full length cynomolgus C5aR stably …; assay: FACS, CHO Flp-In cells expressing cynomolgus C5aR, single IgG concentration
Experimental: as §1

| Binder | Activity of human C5a EC50 (nM) in absence of anti-C5aR antibody, β-arrestin recruitment (PathHunter) [1] [nM] | EC50 [2] [nM] | EC50 [3] [nM] | IgG concentration for 50% inhibition of CD11b upregulation, granulocytes, 15 nM human C5a [4] [nM] | IgG concentration for 50% inhibition of CD11b upregulation, granulocytes, 150 nM human C5a [4] [nM] | Activity of human C5a EC50 (nM) in presence of 50 nM anti-C5aR antibody, β-arrestin recruitment [1] [nM] | [%] inhibition at 1.2 nM C5a and 50 nM IgG, β-arrestin recruitment [5] [%] | [%] inhibition at 11 nM C5a and 50 nM IgG, β-arrestin recruitment [5] [%] | [%] inhibition at 100 nM C5a and 50 nM IgG, β-arrestin recruitment [5] [%] | CD11b assay, granulocytes, 15 nM C5a, 20 minutes of IgG incubation: IC50 [6] [nM] | CD11b assay, granulocytes, 15 nM C5a, 300 minutes of IgG incubation: IC50 [6] [nM] | CD11b assay, monocytes, 15 nM C5a, 20 minutes of IgG incubation: IC50 [6] [nM] | CD11b assay, monocytes, 15 nM C5a, 300 minutes of IgG incubation: IC50 [6] [nM] | binding result [7] | binding result [8] |
| --- | --- | --- | --- | --- | --- | --- | --- | --- | --- | --- | --- | --- | --- | --- | --- |
| B1 | 2.9 |  |  |  |  |  |  |  |  |  |  |  |  |  |  |
| B2 |  | 1.1 | 3.1 | 12 | 291 | 10 | 84.2 | 38.9 | 6.4 | 10.2 | 6.5 | 1.8 | 5.3 | no binding (tested: ~250 nM) | no binding (tested: 300 nM) |
